Reference: paper PMC10754148 (Cell, 2023)

What was measured:
[1] = target: T1, 5/6FAM-F13ExonS synthetic peptide (5/6FAM on the N-terminus); assay: fluorescence polarisation
T1 peptide: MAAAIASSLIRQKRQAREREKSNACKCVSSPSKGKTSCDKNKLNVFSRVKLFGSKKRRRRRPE

[2] = target: pdisplay-LRRC37B-LRR_ECTO (amino acids 468-841) (human, UniProt Q96QE4 468-841); assay: cell-surface binding assay
[3] = target: pdisplay-LRRC37B_ECTO (amino acids 28-905) (human, UniProt Q96QE4 28-905); assay: cell-surface binding assay
Chain of pdisplay-LRRC37B_ECTO (amino acids 28-905) (Q96QE4 28-905): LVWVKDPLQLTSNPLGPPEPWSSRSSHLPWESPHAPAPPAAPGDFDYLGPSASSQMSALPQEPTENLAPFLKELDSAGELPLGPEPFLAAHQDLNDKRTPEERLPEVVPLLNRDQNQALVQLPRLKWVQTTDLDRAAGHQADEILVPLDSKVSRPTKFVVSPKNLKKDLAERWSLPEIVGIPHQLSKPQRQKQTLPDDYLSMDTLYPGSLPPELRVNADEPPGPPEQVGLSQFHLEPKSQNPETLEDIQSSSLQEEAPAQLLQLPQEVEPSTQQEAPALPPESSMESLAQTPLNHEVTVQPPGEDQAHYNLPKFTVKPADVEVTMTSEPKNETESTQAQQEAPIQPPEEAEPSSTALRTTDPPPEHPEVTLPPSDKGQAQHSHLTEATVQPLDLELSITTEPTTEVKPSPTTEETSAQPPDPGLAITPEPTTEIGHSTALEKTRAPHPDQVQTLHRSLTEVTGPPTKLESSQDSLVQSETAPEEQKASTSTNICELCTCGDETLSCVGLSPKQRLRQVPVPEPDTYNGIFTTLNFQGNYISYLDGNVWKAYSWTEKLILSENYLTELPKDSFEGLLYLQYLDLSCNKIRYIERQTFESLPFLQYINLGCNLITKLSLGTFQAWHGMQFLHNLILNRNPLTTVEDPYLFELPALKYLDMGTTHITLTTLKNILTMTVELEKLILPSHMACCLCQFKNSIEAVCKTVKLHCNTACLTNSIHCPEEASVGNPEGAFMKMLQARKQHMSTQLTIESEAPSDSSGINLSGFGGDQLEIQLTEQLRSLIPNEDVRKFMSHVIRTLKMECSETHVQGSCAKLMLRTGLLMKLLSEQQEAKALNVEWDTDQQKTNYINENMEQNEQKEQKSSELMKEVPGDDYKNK

[4] = target: Nav1.6 (SCN8A), transfected cDNA (UniProt Q9UQD0 1-1980); assay: cell-surface binding assay
Chain of Nav1.6 (SCN8A), transfected cDNA (Q9UQD0 whole entry): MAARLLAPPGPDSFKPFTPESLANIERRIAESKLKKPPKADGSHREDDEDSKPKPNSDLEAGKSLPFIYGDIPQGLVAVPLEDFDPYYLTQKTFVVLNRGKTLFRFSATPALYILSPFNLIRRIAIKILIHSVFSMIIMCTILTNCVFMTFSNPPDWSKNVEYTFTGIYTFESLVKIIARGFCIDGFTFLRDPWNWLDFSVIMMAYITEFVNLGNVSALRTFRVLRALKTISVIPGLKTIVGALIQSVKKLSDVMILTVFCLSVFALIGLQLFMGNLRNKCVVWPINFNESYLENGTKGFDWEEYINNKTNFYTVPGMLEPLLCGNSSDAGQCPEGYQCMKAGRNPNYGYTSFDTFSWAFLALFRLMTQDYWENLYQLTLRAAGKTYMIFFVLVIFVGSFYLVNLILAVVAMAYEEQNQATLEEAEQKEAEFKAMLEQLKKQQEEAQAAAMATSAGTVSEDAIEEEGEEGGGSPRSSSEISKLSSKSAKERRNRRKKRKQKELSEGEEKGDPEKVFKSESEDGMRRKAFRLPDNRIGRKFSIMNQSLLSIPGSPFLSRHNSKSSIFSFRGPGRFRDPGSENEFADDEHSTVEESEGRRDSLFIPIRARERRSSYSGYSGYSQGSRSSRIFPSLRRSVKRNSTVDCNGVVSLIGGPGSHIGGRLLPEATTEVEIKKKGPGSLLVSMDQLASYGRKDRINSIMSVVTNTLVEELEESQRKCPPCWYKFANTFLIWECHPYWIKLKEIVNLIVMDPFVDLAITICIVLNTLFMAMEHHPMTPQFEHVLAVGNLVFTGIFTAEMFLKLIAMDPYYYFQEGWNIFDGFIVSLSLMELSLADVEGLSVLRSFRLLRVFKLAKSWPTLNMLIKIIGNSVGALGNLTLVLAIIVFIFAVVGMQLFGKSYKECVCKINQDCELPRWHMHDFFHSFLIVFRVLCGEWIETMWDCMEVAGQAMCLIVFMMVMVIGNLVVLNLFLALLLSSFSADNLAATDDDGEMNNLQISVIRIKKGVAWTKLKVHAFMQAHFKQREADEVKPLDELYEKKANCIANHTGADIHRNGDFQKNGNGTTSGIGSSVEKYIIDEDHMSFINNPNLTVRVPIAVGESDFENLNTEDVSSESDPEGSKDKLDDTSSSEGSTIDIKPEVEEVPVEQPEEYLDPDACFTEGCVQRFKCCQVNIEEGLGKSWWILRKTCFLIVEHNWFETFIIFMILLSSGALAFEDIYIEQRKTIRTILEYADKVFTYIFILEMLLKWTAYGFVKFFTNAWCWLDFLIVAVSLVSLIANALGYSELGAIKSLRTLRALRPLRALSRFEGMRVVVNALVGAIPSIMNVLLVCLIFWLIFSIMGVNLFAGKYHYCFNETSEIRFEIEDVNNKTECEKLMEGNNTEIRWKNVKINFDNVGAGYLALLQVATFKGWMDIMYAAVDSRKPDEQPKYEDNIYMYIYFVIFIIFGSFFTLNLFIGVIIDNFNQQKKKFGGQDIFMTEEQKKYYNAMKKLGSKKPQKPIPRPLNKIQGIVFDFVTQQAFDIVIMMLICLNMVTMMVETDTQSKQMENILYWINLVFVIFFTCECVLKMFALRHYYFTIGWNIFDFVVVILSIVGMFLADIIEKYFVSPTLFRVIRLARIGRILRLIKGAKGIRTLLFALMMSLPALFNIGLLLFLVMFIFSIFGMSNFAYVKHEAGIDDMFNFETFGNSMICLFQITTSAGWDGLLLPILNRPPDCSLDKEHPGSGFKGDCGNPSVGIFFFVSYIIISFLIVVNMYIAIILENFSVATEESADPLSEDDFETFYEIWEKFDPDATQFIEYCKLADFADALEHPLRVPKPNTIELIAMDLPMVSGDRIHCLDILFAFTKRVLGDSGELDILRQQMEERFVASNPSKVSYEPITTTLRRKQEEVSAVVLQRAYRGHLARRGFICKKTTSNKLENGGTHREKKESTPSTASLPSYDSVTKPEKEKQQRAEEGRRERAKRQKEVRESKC

B1: FLAG-LRR recombinant protein (LRR domain of LRRC37B, amino acids 468-841) (domain or fragment)
chain: AAAEKTRAPHPDQVQTLHRSLTEVTGPPTKLESSQDSLVQSETAPEEQKASTSTNICELCTCGDETLSCVGLSPKQRLRQVPVPEPDTYNGIFTTLNFQGNYISYLDGNVWKAYSWTEKLILSENYLTELPKDSFEGLLYLQYLDLSCNKIRYIERQTFESLPFLQYINLGCNLITKLSLGTFQAWHGMQFLHNLILNRNPLTTVEDPYLFELPALKYLDMGTTHITLTTLKNILTMTVELEKLILPSHMACCLCQFKNSIEAVCKTVKLHCNTACLTNSIHCPEEASVGNPEGAFMKMLQARKQHMSTQLTIESEAPSDSSGINLSGFGGDQLEIQLTEQLRSLIPNEDVRKFMSHVIRTLKMECSETHVQGSCAKLSTG
Which Kd [1] does the source give for B1 here?
Its Kd is 530 nM.

B2: F13ExonS-biotin synthetic peptide (peptide)
peptide: T1 peptide
modifications: not fully specified (C-terminus)
Which Kd [2] does the source give for B2 here?
The Kd was 1.18 ± 0.28 nM.

What about the Kd [3] of the same binder?
Its Kd is 1.1 ± 0.261 nM.

What about the Kd [4] of the same binder?
Its Kd is 49.83 ± 0.261 nM.
